# Results reported in article PMC4954732 (2016).
# Target: A. fumigatus CCAAT binding complex (CBC) consisting of HapB(230-299), HapC(40-137) and HapE(47-164) (A. fumigatus)
# Experiment: SPR
binder,measurement,value
HapX(24-158) (domain or fragment) SPSPGPGTPGSITSKEWVIPPRPKPGRKPATDTPPTKRKAQNRAAQRAFRERRAARVNELEEQIKKIEDEHEIHIAAFKEQITNLSREVEQCRSEMTWWRDRCHALEKEVSVERSAKEAIVKEFRSSLSDREAVR,Kd,16.2 nM
